Data on two molecules can be found in patent US20250297004A1, “NECTIN-4 BINDING AGENTS” (INNATE PHARMA, priority 2022, published 2025).

Assay [1] deals with human Nectin-4 (protein used in the SPR affinity measurements) (human) (UniProt Q96NY8). Description: SPR.
Assay [2] addresses T1, human Nectin-4 expressed on cells (human, UniProt Q96NY8 32-510).
T1 construct: On SUM190, SUM185, MDA-MB-468 cells (endogenous) or transfected cells; 31-residue signal peptide left out; also called huN4; wild-type human Nectin-4
T1 sequence: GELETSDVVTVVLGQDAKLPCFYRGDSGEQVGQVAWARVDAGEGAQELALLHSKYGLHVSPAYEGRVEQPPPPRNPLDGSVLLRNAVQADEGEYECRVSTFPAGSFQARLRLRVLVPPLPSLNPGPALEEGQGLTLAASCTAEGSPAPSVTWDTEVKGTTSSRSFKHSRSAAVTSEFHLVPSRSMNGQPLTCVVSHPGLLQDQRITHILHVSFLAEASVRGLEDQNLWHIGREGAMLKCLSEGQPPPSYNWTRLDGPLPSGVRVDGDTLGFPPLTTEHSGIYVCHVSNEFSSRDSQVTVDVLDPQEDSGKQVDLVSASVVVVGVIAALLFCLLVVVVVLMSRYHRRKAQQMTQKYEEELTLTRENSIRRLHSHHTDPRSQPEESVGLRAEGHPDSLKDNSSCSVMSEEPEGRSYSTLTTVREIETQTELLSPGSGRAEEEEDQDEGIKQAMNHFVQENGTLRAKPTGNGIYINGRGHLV
Put plainly: flow cytometry on SUM190 cells, MedFI at saturation. On the procedure: The humanized antibodies in Table 3 of Example 3 and in Table 6 of Example 5 were cloned, produced and purified, then tested for binding to Nectin-4 expressing cells by flow cytometry. Binding of humanized variants in human IgG1 format was determined on the SUM190 cell line expressing high levels of Nectin-4.
On the technique in general: Flow cytometry measures light scatter and fluorescence of single cells or particles in a stream.

For assay [3], the target named is T2, cynomolgus Nectin-4 protein expressed on CHO cells (cynomolgus, UniProt Q96NY8 32-510 (human entry)).
T2 construct: also called Cyno Nectin-4 V5
T2 chain: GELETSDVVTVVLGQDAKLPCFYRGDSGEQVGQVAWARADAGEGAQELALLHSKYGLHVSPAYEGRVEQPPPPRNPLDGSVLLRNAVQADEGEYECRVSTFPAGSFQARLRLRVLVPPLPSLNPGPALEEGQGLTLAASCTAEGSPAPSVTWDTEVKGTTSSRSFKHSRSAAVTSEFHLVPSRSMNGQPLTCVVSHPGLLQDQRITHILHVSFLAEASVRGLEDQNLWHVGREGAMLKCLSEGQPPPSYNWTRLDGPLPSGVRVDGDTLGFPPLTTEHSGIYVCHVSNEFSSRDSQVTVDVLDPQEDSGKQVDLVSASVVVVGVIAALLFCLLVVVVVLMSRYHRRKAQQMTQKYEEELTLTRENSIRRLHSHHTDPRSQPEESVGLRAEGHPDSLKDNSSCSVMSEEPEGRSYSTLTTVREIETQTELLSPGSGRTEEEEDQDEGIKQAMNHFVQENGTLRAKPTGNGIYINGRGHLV
Description: flow cytometry on CHO cells expressing cynomolgus Nectin-4, Median MFI (PE). As to the method: (§1) Anti-Nectin-4 antibodies were tested by flow cytometry for binding to different CHO cell lines made to express respectively the mouse, cynomolgus and rat Nectin-4 protein (including an N-terminal V5 tag not shown in the sequences below).

Assay [4] has as its target T3, rat Nectin-4 protein expressed on CHO cells (rat, UniProt Q8R007 31-508 (mouse entry)).
T3 construct: no cleavage site is stated; also called Rat Nectin-4 V5
T3 chain: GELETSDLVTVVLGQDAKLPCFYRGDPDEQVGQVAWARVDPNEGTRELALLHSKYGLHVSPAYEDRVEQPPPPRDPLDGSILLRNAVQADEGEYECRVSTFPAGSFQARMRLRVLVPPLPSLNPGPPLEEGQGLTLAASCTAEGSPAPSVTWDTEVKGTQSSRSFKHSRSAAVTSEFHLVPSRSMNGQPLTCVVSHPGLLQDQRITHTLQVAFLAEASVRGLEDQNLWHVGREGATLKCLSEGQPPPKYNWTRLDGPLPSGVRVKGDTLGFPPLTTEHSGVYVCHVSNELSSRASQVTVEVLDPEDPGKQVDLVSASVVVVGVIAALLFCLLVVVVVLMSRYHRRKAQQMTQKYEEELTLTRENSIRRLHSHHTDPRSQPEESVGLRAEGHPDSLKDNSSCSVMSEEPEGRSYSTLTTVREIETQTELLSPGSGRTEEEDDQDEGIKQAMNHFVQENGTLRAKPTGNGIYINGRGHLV
Put plainly: flow cytometry on CHO cells expressing rat Nectin-4, Median MFI (PE). As to the method:
as §1

In assay [5] the target is T4, mouse Nectin-4 protein expressed on CHO cells (mouse, UniProt Q8R007 32-508).
T4 construct: also called Mouse Nectin-4-V5
T4 sequence: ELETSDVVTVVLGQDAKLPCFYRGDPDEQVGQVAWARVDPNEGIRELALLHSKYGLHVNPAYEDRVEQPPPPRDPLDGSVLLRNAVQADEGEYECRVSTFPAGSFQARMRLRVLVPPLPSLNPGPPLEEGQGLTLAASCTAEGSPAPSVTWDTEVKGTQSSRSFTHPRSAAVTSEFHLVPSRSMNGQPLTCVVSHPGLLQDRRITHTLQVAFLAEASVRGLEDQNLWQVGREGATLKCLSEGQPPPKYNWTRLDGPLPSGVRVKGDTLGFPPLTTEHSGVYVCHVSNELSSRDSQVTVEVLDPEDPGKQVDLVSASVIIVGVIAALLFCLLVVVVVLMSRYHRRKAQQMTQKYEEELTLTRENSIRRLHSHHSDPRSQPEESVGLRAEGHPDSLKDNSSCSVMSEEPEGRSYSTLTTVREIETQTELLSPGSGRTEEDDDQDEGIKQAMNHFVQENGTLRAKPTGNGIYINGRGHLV
Put plainly: flow cytometry on CHO cells expressing mouse Nectin-4.

Assay [6] deals with T5, human Nectin-4 (Homo sapiens, UniProt Q96NY8).
T5 sequence (Q96NY8 32-510): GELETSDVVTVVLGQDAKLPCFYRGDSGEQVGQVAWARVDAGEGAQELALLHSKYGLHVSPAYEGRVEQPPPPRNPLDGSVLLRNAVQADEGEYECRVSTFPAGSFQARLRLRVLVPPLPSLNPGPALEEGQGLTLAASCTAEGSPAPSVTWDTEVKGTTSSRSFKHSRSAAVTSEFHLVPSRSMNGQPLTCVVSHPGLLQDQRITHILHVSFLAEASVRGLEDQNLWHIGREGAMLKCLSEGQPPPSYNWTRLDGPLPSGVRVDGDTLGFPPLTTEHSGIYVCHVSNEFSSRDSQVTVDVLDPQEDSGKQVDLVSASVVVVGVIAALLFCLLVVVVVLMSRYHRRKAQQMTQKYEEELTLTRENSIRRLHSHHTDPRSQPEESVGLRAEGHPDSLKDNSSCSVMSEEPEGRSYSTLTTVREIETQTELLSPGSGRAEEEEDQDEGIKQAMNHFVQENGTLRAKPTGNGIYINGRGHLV
Put plainly: Binding to human Nectin-4 by SPR. The following applies: for ka: SPR association constant; for kd: SPR dissociation constant; for Kd: SPR, human IgG1 isotype antibodies. An outline of the steps: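 Humanized variants expressed and purified as human IgG1 and tested by SPR against human Nectin-4. Association (ka, 1/Ms) and dissociation (kd, 1/s) rate constants were fitted, and affinity is reported as KD (nM).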

B1: chimeric parental 5E7 antibody (antibody, V domains shown)
VH: QVQLQQPGAELVKPGASVKLSCKASGYIFTSYWMHWVKQRPGQGLEWIGEIDPSDSYTNYNQKFKGKATLTLDKSSSTTYMQLSSLTSEDSAVYYCVRGYGNYGDYWGQGTTLTVSS
VL: DVVMTQAAFSNPVTLGTSASISCRSSKSLLHSNGITYLYWYLQKPGQSPQLLIYQMSNLASGVPDRFSSSGSGTDFTLRISRVEAEDVGVYYCAQNLELPWTFGGGTKLEIKR
notes: Chimeric antibody, murine variable domains with human constant regions; also called ch5E7; CHG1-M-1N4-5E7
As for B1, in assay [1], the Kd (as a rule, the concentration at which binding is half-saturated) turned out to be 5.9 nM; the koff (usually a measure of how fast the partners let go of each other) is 0.0027 s⁻¹; the kon (as a rule, a measure of how fast the partners come together) worked out at 480000 M⁻¹ s⁻¹. In addition, in assay [2], the “Max MedFi” value was 25200 MedFI. For the same molecule, the EC50 (read off the curve) (commonly the concentration needed to bring the measured effect to its halfway point) in assay [3] is around 0.03 µg/mL. In assay [4], the “EC50 (read off the curve)” value is around 0.1 µg/mL. In addition, the binding result in assay [5] was “no binding”.

B2: 5E7 (antibody, V domains shown)
VH: QVQLQQPGAELVKPGASVKLSCKASGYIFTSYWMHWVKQRPGQGLEWIGEIDPSDSYTNYNQKFKGKATLTLDKSSSTTYMQLSSLTSEDSAVYYCVRGYGNYGDYWGQGTTLTVSSASTKGP
VL: DVVMTQAAFSNPVTLGTSASISCRSSKSLLHSNGITYLYWYLQKPGQSPQLLIYQMSNLASGVPDRFSSSGSGTDFTLRISRVEAEDVGVYYCAQNLELPWTFGGGTKLEIKRTVAAP
For the molecule B2, in assay [6] (first set (Table 4)), the “ka” value was determined as 480000 ± 1e-05 M⁻¹ s⁻¹, the “kd” value came out at 0.0027 ± 0.0003 s⁻¹ and the Kd was determined as 5.9 ± 1.2 nM. In assay [6] (second set (Table 7)), the “ka” value amounted to 480000 ± 1e-05 M⁻¹ s⁻¹, the “kd” value was 0.0027 ± 0.0003 s⁻¹ and the dissociation constant Kd was found to be 5.9 nM.
